Laboratory results reported in publication PMC9666628 (Nature Communications, 2022).

T1: Cbx7.V1 (human, UniProt O95931 7-66, E8D (back-mutant printed as D8E) | Q9D (back-mutant printed as D9Q) | V10I …)
T1 construct: also called Cbx7.5; source: E. coli BL21(DE3), purified (Ni-NTA); tags removed with TEV protease
T1 sequence: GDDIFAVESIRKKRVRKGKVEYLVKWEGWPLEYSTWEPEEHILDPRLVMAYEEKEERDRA

T2: Cbx7 Q9D (human, UniProt O95931 7-66, Q9D)
T2 construct: chromodomain of human Cbx7 (UniProt O95931) with Q9D; source: E. coli BL21(DE3), purified (Ni-NTA); tags removed with TEV protease
T2 sequence: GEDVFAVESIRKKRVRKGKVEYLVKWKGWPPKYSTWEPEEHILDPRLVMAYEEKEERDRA

T3: Cbx7 K33E (human, UniProt O95931 7-66, K33E)
T3 construct: chromodomain of human Cbx7 (UniProt O95931) with K33E; source: E. coli BL21(DE3), purified (Ni-NTA); tags removed with TEV protease
T3 sequence: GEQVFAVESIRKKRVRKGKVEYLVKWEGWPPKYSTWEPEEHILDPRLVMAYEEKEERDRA

T4: Cbx7.V1 I10V back-mutant (human, UniProt O95931 7-66, E8D (printed as the back-mutation D8E) | Q9D | K33E | P37L (printed as the …))
T4 construct: chromodomain of human Cbx7, UniProt O95931; Cbx7.V1 with residue 10 back to the wild type; source: E. coli BL21(DE3), purified (Ni-NTA)
T4 sequence: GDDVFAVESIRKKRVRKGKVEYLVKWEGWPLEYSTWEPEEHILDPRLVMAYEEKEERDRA

T5: Cbx7.V1 E38K back-mutant (human, UniProt O95931 7-66, E8D (printed as the back-mutation D8E) | Q9D | V10I (printed as the …))
T5 construct: chromodomain of human Cbx7, UniProt O95931; Cbx7.V1 with residue 38 back to the wild type; source: E. coli BL21(DE3), purified (Ni-NTA)
T5 sequence: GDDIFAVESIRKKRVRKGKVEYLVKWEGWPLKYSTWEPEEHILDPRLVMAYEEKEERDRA

T6: Cbx7.V1 E33K back-mutant (human, UniProt O95931 7-66, E8D (printed as the back-mutation D8E) | Q9D | V10I (printed as the …))
T6 construct: chromodomain of human Cbx7, UniProt O95931; Cbx7.V1 with residue 33 back to the wild type; source: E. coli BL21(DE3), purified (Ni-NTA)
T6 sequence: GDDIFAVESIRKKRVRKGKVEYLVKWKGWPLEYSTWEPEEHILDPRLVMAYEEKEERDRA

T7: Cbx7.V1 D8E back-mutant (human, UniProt O95931 7-66, Q9D | V10I (printed as the back-mutation I10V) | K33E | P37L (printed as the …))
T7 construct: chromodomain of human Cbx7, UniProt O95931; Cbx7.V1 with residue 8 back to the wild type; source: E. coli BL21(DE3), purified (Ni-NTA)
T7 sequence: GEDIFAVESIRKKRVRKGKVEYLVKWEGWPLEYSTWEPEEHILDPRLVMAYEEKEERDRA

T8: Cbx7.V1 (His6- and Flag-tagged construct, used for BLI) (human, UniProt O95931 7-66, E8D (printed as the back-mutation D8E) | Q9D | V10I (printed as the …))
T8 construct: chromodomain of human Cbx7 (Cbx7-chromo), UniProt O95931; removal of the tags is told only for FP and ITC; source: E. coli BL21(DE3), purified (Ni-NTA)
T8 sequence: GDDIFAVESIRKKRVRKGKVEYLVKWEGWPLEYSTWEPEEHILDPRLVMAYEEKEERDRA

T9: Cbx7.V1 D9Q back-mutant (human, UniProt O95931 7-66, E8D (printed as the back-mutation D8E) | V10I (printed as the back-mutation …))
T9 construct: chromodomain of human Cbx7, UniProt O95931; Cbx7.V1 with residue 9 back to the wild type; source: E. coli BL21(DE3), purified (Ni-NTA)
T9 sequence: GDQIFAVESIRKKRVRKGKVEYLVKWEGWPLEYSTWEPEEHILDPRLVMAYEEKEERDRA

T10: Cbx7.V1 L37P back-mutant (human, UniProt O95931 7-66, E8D (printed as the back-mutation D8E) | Q9D | V10I (printed as the …))
T10 construct: chromodomain of human Cbx7, UniProt O95931; Cbx7.V1 with residue 37 back to the wild type; source: E. coli BL21(DE3), purified (Ni-NTA)
T10 sequence: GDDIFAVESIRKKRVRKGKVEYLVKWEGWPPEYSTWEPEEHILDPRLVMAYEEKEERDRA

T11: Cbx7.V1 (tags removed, used for FP and ITC) (human, UniProt O95931 7-66, E8D (printed as the back-mutation D8E) | Q9D | V10I (printed as the …))
T11 construct: chromodomain of human Cbx7 (Cbx7-chromo), UniProt O95931; source: E. coli BL21(DE3), purified (Ni-NTA; tags removed with TEV protease)
T11 sequence: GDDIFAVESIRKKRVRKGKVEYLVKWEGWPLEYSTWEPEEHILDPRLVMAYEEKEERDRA

T12: Cbx7 Q9D chromodomain (tags removed) (human, UniProt O95931 7-66, Q9D)
T12 construct: chromodomain of human Cbx7 (Cbx7-chromo), UniProt O95931; source: E. coli BL21(DE3), purified (Ni-NTA; tags removed with TEV protease)
T12 sequence: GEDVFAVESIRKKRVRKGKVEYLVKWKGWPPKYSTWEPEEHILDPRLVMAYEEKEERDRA

T13: Cbx7 K33E chromodomain (tags removed) (human, UniProt O95931 7-66, K33E)
T13 construct: chromodomain of human Cbx7 (Cbx7-chromo), UniProt O95931; source: E. coli BL21(DE3), purified (Ni-NTA; tags removed with TEV protease)
T13 sequence: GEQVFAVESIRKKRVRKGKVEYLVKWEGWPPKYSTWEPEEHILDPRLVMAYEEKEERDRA

T14: Cbx7.VD chromodomain, Q9D/K33E (tags removed) (human, UniProt O95931 7-66, Q9D | K33E)
T14 construct: chromodomain of human Cbx7 (Cbx7-chromo), UniProt O95931; source: E. coli BL21(DE3), purified (Ni-NTA; tags removed with TEV protease)
T14 sequence: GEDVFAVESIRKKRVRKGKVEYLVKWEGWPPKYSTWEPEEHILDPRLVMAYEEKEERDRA

T15: wild-type Cbx7 chromodomain (tags removed) (human, UniProt O95931 7-66)
T15 construct: chromodomain of human Cbx7 (Cbx7-chromo), UniProt O95931; also called Cbx7.wt; source: E. coli BL21(DE3), purified (Ni-NTA; tags removed with TEV protease)
T15 sequence: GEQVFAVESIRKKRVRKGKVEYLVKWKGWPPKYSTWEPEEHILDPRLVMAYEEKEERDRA

T16: wild-type Cbx8 chromodomain (tags removed) (human, UniProt Q9HC52 8-61)
T16 construct: chromodomain of human Cbx8; also called Cbx8.wt; source: E. coli BL21(DE3), purified (Ni-NTA; tags removed with TEV protease)
T16 sequence: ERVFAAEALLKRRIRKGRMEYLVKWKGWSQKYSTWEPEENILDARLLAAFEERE

T17: wild-type Cbx2 chromodomain (tags removed) (human, UniProt Q14781 9-62)
T17 construct: chromodomain of human Cbx2; also called Cbx2.wt; source: E. coli BL21(DE3), purified (Ni-NTA; tags removed with TEV protease)
T17 sequence: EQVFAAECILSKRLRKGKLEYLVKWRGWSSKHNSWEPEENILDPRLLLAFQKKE

B1: FITC-labeled H3K9me3 peptide (peptide)
peptide: ARTKQTARKSTGGKAPR
modifications: trimethyl-lysine at K9 (Kme3); fluorescein isothiocyanate (FITC) on the N-terminus
notes: histone H3 N-terminal tail, residues 1-17; source: synthetic peptide (GenScript)
B2: FITC-labeled H3K27me3 peptide (peptide)
peptide: KQLATKAARKSAPATGGVK
modifications: trimethyl-lysine at K27 (Kme3); fluorescein isothiocyanate (FITC) on the N-terminus
notes: histone H3 tail, residues 18-36; source: synthetic peptide (GenScript)
B3: H3K9me3 peptide, N-terminal biotin (peptide)
chain: ARTKQTARKSTGGKAPR
modifications: trimethyl-lysine at K9; biotin followed by an aminohexanoic acid linker at the N-terminus
B4: H3K27me3 peptide, N-terminal biotin (peptide)
chain: KQLATKAARKSAPATGGVK
modifications: trimethyl-lysine at K27; biotin followed by an aminohexanoic acid linker at the N-terminus

Key:
Conditions in all cases: both partners purified
[1] = target: T1, Cbx7.V1; test: fluorescence polarisation; 0.5 nM FITC-labeled peptide, chromodomain serially diluted (wild type 200-0.2 µM; Cbx7.V1 50 µM-50 nM); 25 mM HEPES pH 7.5, 150 mM NaCl, 1 mM DTT, 0.01% TritonX-100; 30 min at 25 °C; one-site total binding model
[2] = target: T2, Cbx7 Q9D; test: as above
[3] = target: T3, Cbx7 K33E; test: as above
[4] = target: T4, Cbx7.V1 I10V back-mutant; test: BLI; biotinylated peptides immobilised on streptavidin biosensor tips (Octet HTX); chromodomains in solution at 5 or 1 µM; 25 °C; 25 mM HEPES pH 7.0, 150 mM NaCl, 1 mg/ml BSA, 0.01% Tween-20; steady-state fit, Langmuir model
[5] = target: T5, Cbx7.V1 E38K back-mutant; test: as above
[6] = target: T6, Cbx7.V1 E33K back-mutant; test: as above
[7] = target: T7, Cbx7.V1 D8E back-mutant; test: as above
[8] = target: T8, Cbx7.V1 (His6- and Flag-tagged …); test: as above
[9] = target: T9, Cbx7.V1 D9Q back-mutant; test: as above
[10] = target: T10, Cbx7.V1 L37P back-mutant; test: as above
[11] = target: T11, Cbx7.V1 (tags removed, used for FP and …); test: ITC; peptides (1.2-2 mM, syringe) titrated into Cbx7.V1 (70-112 µM, cell); 25 °C; PBS pH 7.4, 1 mM TCEP; one-site binding model
[12] = target: T12, Cbx7 Q9D chromodomain (tags removed); test: fluorescence polarisation; 0.5 nM FITC-labelled peptide; chromodomains 200-0.2 µM (wild type) or 50 µM-50 nM (Cbx7.V1 and all Cbx.VDs); 30 min at 25 °C; 25 mM HEPES pH 7.5, 150 mM NaCl, 1 mM DTT, 0.01% TritonX-100; one-site total binding model
[13] = target: T13, Cbx7 K33E chromodomain (tags removed); test: as above
[14] = target: T14, Cbx7.VD chromodomain, Q9D/K33E (tags …); test: as above
[15] = target: T11, Cbx7.V1 (tags removed, used for FP and …); test: as above
[16] = target: T15, wild-type Cbx7 chromodomain (tags …); test: as above
[17] = target: T16, wild-type Cbx8 chromodomain (tags …); test: as above
[18] = target: T17, wild-type Cbx2 chromodomain (tags …); test: as above

Binder | Kd [1] | Kd [2] | Kd [3] | Kd [4] | Kd [5] | Kd [6] | Kd [7] | Kd [8] | Kd [9] | Kd [10] | Kd [11] | stoichiometry N [11] | also measured
B1 | 7.2 µM | 12.3 µM | 18 µM |  |  |  |  |  |  |  |  |  | 
B2 | 4.2 µM | 97 µM | 17.5 µM |  |  |  |  |  |  |  |  |  | 
B3 |  |  |  | 3.5 µM | 2 µM | 10 µM | 5 µM | 4.5 µM | > 20 µM | 3 µM | 7 µM | ~1 | 
B4 |  |  |  | 2 µM | 1.5 µM | > 20 µM | 2 µM | 2 µM | 2 µM | 2.5 µM | 7.8 µM | ~1 | 
KQLATKAARKSAPATGGVK (trimethyl-lysine at K27; fluorescein isothiocyanate (FITC) at the N-terminus) [H3K27me3 peptide, N-terminal FITC] |  |  |  |  |  |  |  |  |  |  |  |  | Kd [12]: 100 µM; Kd [13]: 20 µM; Kd [14]: 5 µM; Kd [15]: 4 µM; Kd [16]: 110 µM; Kd [17]: > 200 µM; Kd [18]: 100 µM
